Results as given in publication doi:10.1101/2021.03.29.437455.

What was measured:
[1] = target: polo-like kinase 1 (PLK1) PBD, 345-603 (UniProt P53350); assay: isothermal titration calorimetry; conditions: reference: unphosphorylated peptide PNTSSPS; sites S379
[2] = target: PLK1 polo-box domain (PBD), PLK1 residue 345-603 (UniProt P53350); assay: ITC
[3] = target: GST-EBNA2 446-474 S457A/T465V (Epstein-Barr virus) (UniProt P12978); assay: pull-down; conditions: remark: other sources report otherwise

EBNA2 (EBV nuclear antigen 2) (from UniProt P12978) phosphopeptide PNTSpSPS
KD [1]: 8.19 µM

EBNA2 phospho-heptapeptide PNTSpSPS
Kd [2]: 8.19 µM
stoichiometry N [2]: 1

histone acetylase and co-activator p300, Q09472 1-2414
fold change of p300 binding against wt [3]: 8 to 9 fold
